Results reported in article PMC4601081, “A Single α Helix Drives Extensive Remodeling of the Proteasome Lid and Completion of Regulatory Particle Assembly” (Cell, 2015).
Ends that are not written are not given here.

B2: Rpn8, subunit of LP2 and lid purified from yeast (natural protein, S. cerevisiae, UniProt Q08723 1-338, looked up)
chain: MSLQHEKVTIAPLVLLSALDHYERTQTKENKRCVGVILGDANSSTIRVTNSFALPFEEDEKNSDVWFLDHNYIENMNEMCKKINAKEKLIGWYHSGPKLRASDLKINELFKKYTQNNPLLLIVDVKQQGVGLPTDAYVAIEQVKDDGTSTEKTFLHLPCTIEAEEAEEIGVEHLLRDVRDQAAGGLSIRLTNQLKSLKGLQSKLKDVVEYLDKVINKELPINHTILGKLQDVFNLLPNLGTPDDDEIDVENHDRINISNNLQKALTVKTNDELMVIYISNLVRSIIAFDDLIENKIQNKKIQEQRVKDKQSKVSDDSESESGDKEATAPLIQRKNKKN
notes: Rpn8, S. cerevisiae proteasome lid subunit; source: purified from S. cerevisiae as part of LP2 or lid

What was measured:
Settings in all cases: both partners purified
[1] = biological target: T1, lid particle 2 (LP2), recombinant (S. cerevisiae, UniProt P40016 1-523; Q12250 1-445; Q12377 1-434; Q06103 1-429; Q08723 1-338; Q04062 …); experiment: negative-stain EM; purified recombinant LP2 treated with an equimolar concentration of recombinant Rpn12; 2D class averages
T1 construct: Rpn3, S. cerevisiae proteasome lid subunit; Rpn5, S. cerevisiae proteasome lid subunit; Rpn6, S. cerevisiae proteasome lid subunit; Rpn7, S. cerevisiae proteasome lid subunit; Rpn8, S. cerevisiae proteasome lid subunit; Rpn9, S. cerevisiae proteasome lid subunit; Rpn11, S. cerevisiae proteasome lid subunit; Sem1, S. cerevisiae proteasome lid subunit; legends speak of 'untagged LP2'; operons as in …
T1 sequence (O94742 whole entry, chain 8 of 3, one chain of several, further chain): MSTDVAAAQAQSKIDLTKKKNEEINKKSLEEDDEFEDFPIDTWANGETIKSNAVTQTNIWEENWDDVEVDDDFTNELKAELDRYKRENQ

[2] = biological target: T2, Rpn5, subunit of LP2 and lid purified from yeast (S. cerevisiae, UniProt Q12250 1-445); experiment: cross-linking; QCLMS of lid purified from yeast as a whole complex: BS3-d0 / BS3-d4 at 1:200 protein to cross-linker, Buffer HA, 30°C 1 h; monomeric cross-linked complex cut from SDS-PAGE, trypsin, LC-MS/MS
T2 construct: Rpn5, S. cerevisiae proteasome lid subunit; source: purified from S. cerevisiae as part of LP2 or lid
T2 sequence (looked up): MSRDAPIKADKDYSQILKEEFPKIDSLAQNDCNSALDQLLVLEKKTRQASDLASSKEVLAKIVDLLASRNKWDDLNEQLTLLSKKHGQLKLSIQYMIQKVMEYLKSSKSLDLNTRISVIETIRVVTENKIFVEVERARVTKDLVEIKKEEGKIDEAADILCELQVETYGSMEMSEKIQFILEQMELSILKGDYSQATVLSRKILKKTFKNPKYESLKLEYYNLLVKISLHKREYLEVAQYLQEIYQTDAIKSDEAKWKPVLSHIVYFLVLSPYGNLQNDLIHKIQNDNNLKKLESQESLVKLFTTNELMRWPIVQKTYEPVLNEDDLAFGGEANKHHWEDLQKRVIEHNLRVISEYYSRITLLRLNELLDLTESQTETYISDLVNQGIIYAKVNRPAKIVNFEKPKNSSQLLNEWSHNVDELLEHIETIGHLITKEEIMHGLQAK

[3] = biological target: T3, Rpn9, subunit of LP2 and lid purified from yeast (S. cerevisiae, UniProt Q04062 1-393); experiment: cross-linking; QCLMS of LP2 purified from yeast as a whole complex: BS3-d0 / BS3-d4 at 1:200 protein to cross-linker, Buffer HA, 30°C 1 h; monomeric cross-linked complex cut from SDS-PAGE, trypsin, LC-MS/MS
T3 construct: Rpn9, S. cerevisiae proteasome lid subunit; source: purified from S. cerevisiae as part of LP2 or lid
T3 sequence (looked up): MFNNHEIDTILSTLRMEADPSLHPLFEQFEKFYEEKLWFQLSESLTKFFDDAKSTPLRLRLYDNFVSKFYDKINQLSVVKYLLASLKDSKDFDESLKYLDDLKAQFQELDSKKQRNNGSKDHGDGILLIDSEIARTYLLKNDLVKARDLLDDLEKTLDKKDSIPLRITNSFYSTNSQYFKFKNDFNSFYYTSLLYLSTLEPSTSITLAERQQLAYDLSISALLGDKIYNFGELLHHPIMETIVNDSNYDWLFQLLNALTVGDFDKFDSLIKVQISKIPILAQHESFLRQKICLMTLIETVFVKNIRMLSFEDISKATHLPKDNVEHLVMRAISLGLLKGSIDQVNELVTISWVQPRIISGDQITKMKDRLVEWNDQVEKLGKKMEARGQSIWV

[4] = biological target: T4, Rpn6, subunit of LP2 and lid purified from yeast (S. cerevisiae, UniProt Q12377 1-434); experiment: as above
T4 construct: Rpn6, S. cerevisiae proteasome lid subunit; Also stands as the whole protein for the region row on the E. coli truncations; source: purified from S. cerevisiae as part of LP2 or lid
T4 sequence (looked up): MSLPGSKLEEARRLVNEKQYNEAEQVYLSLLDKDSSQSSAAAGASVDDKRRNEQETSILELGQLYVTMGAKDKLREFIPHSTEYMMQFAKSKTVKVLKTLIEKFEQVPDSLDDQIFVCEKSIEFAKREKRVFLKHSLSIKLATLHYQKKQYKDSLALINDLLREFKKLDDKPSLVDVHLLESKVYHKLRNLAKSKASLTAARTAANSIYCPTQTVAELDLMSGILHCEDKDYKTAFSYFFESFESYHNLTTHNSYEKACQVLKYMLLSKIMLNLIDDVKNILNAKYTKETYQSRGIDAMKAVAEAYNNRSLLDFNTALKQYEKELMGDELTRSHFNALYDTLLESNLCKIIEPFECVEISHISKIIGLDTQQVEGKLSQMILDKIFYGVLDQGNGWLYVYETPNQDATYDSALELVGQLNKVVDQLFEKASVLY

[5] = biological target: T5, Rpn3, subunit of LP2 and lid purified from yeast (S. cerevisiae, UniProt P40016 1-523); experiment: as above
T5 construct: Rpn3, S. cerevisiae proteasome lid subunit; source: purified from S. cerevisiae as part of LP2 or lid
T5 sequence (looked up): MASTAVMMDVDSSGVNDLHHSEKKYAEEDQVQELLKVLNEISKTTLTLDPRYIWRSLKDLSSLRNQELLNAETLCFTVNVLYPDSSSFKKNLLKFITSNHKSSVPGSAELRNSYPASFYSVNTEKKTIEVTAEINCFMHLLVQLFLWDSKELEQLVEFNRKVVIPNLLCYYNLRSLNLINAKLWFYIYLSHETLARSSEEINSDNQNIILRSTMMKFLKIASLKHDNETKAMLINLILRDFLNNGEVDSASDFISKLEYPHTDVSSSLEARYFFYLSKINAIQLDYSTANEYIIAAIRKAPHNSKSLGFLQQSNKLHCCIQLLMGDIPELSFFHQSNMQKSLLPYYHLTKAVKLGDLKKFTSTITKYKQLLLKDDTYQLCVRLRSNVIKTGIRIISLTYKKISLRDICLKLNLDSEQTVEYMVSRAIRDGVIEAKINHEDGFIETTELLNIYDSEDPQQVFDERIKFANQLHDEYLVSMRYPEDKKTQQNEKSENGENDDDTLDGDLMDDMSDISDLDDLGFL

[6] = biological target: T1, lid particle 2 (LP2), recombinant; experiment: fluorescence polarisation; fluorescence anisotropy: 1 uM fluorescein-labelled N12pep in Lid Buffer alone, with 1 uM LP2, 5 uM Rpn12, or both; 25°C 20 min; excitation 485 nm, emission 513-528 nm
[7] = biological target: B2; experiment: cross-linking; QCLMS of LP2 purified from yeast as a whole complex: BS3-d0 / BS3-d4 at 1:200 protein to cross-linker, Buffer HA, 30°C 1 h; monomeric cross-linked complex cut from SDS-PAGE, trypsin, LC-MS/MS
[8] = biological target: T2, Rpn5, subunit of LP2 and lid purified …; experiment: as above

B1: Rpn12, recombinant, full-length (natural protein, S. cerevisiae, UniProt P32496 1-274, looked up)
chain: MPSLAELTKSLSIAFENGDYAACEKLLPPIKIELIKNNLLIPDLSIQNDIYLNDLMITKRILEVGALASIQTFNFDSFENYFNQLKPYYFSNNHKLSESDKKSKLISLYLLNLLSQNNTTKFHSELQYLDKHIKNLEDDSLLSYPIKLDRWLMEGSYQKAWDLLQSGSQNISEFDSFTDILKSAIRDEIAKNTELSYDFLPLSNIKALLFFNNEKETEKFALERNWPIVNSKVYFNNQSKEKADYEDEMMHEEDQKTNIIEKAMDYAISIENIV
notes: Rpn12, S. cerevisiae proteasome lid subunit; also called recombinant Rpn12; purified Rpn12
binding result [1]: binds

B2
binding result [2]: binds | binding result [3]: binds | binding result [4]: binds

B3: Rpn7, subunit of LP2 and lid purified from yeast (natural protein, S. cerevisiae, UniProt Q06103 1-429, looked up)
chain: MVDVEEKSQEVEYVDPTVNRVPNYEVSEKAFLLTQSKVSIEQRKEAAEFVLAKIKEEEMAPYYKYLCEEYLVNNGQSDLEHDEKSDSLNEWIKFDQELYNELCKKNESKIKELNEKIQKLEEDDEGELEQAQAWINLGEYYAQIGDKDNAEKTLGKSLSKAISTGAKIDVMLTIARLGFFYNDQLYVKEKLEAVNSMIEKGGDWERRNRYKTYYGIHCLAVRNFKEAAKLLVDSLATFTSIELTSYESIATYASVTGLFTLERTDLKSKVIDSPELLSLISTTAALQSISSLTISLYASDYASYFPYLLETYANVLIPCKYLNRHADFFVREMRRKVYAQLLESYKTLSLKSMASAFGVSVAFLDNDLGKFIPNKQLNCVIDRVNGIVETNRPDNKNAQYHLLVKQGDGLLTKLQKYGAAVRLTGSDRV
notes: Rpn7, S. cerevisiae proteasome lid subunit; source: purified from S. cerevisiae as part of LP2 or lid
binding result [5]: binds

B4: N12pep, fluorescently labeled peptide of the Rpn12 C-terminal helix (peptide)
peptide: DQKTNIIEKAMDYAISIENIK(5,6‑carboxyfluorescein)
notes: Rpn12, S. cerevisiae, C-terminal helix; added lysine that carries 5,6-carboxyfluorescein; also called Rpn12 C-terminal helix peptide; source: synthetic peptide (Elim Biopharmaceuticals)
binding result [6]: binds

B5: Rpn11, subunit of LP2 and lid purified from yeast (natural protein, S. cerevisiae, UniProt P43588 1-306, looked up)
chain: MERLQRLMMNSKVGSADTGRDDTKETVYISSIALLKMLKHGRAGVPMEVMGLMLGEFVDDYTVNVVDVFAMPQSGTGVSVEAVDDVFQAKMMDMLKQTGRDQMVVGWYHSHPGFGCWLSSVDVNTQKSFEQLNSRAVAVVVDPIQSVKGKVVIDAFRLIDTGALINNLEPRQTTSNTGLLNKANIQALIHGLNRHYYSLNIDYHKTAKETKMLMNLHKEQWQSGLKMYDYEEKEESNLAATKSMVKIAEQYSKRIEEEKELTEEELKTRYVGRQDPKKHLSETADETLENNIVSVLTAGVNSVAIK
notes: Rpn11, S. cerevisiae proteasome lid subunit; source: purified from S. cerevisiae as part of LP2 or lid
binding result [7]: binds | binding result [8]: binds
